This note sets out measurements from patent publication US20090162360A1.

The experiment concerns the target recombinant human IGF-1R on I24 cells (human) (UniProt P08069). Briefly: cellular FACS IGF-1R-ANGPT2 bridging assay: I24 cells + hIgG isotype, then 2 µg/mL hANGPT2, <ANGPT2>mIgG1-Biotin and Streptavidin-PE; negative control; untreated I24 cells (panel A): Mean 5.01.

As to hIgG Isotype (antibody), the Mean (FL2-H fluorescence) was determined as 8.76.
